The subject of one assay is HEK293 (293) cells. In words: In vitro cell viability (cell kill) assay, CCK8. Format: cell-based, human. The source says: (§1) PRLR-overexpressing cells, including HEK293, PC3, MCF7 and NCI-N87, were generated to assess the ability of anti-PRLR conjugated antibodies to reduce cell viability. For comparative purposes, PC3 and T47D cells with overexpressed ErbB2 were also generated, as well as an MCF7 cell line over-expressing both hPRLR and hErbB2. Briefly, Lipofectamine® 2000-mediated transfection methodology was utilized to generate HEK293 cells expressing human PRLR (HEK293/hPRLR) or human ErbB2 (HEK293/hErbB2). Lipofectamine LTX with Plus Reagent was used to generate PC3 cells expressing human PRLR (PC3/hPRLR) or human ErbB2 (PC3/hErbB2). Lentiviral-mediated transduction was utilized to generate MCF7 cells expressing human PRLR (MCF7/hPRLR), NCI-N87 cells expressing human PRLR (NCI-N87/hPRLR), T47D cells over-expressing human ErbB2 (T47D/hErbB2), and MCF7 cells expressing both human PRLR and human ErbB2 (MCF7/hPRLR/hErbB2). All lines were selected for at least two weeks in complete growth media plus appropriate selection reagents. Stably expressing populations were enriched for PRLR expression via FACS using the anti PRLR antibody Control I.
(§2) Next, the ability of anti-PRLR-DM1 antibody-drug conjugates (i.e., anti-PRLR antibodies conjugated to DM1 via a non-cleavable linker [SMCC]) to reduce cell viability was determined using in vitro cell based assays. Cells were seeded in PDL-coated 96 well plates at 1500 to 10000 cells per well in complete growth media and allowed to grow overnight. For cell viability curves, ADCs or free DM1 (as the methyl disulfide derivative DM1-SMe) were added to the cells at final concentrations ranging from 500 nM to 5 pM and incubated for 3 days. The 293, PC3 and T47D cells were incubated with CCK8 (Dojindo, Rockville, Md.) for the final 1-3 hours and the absorbance at 450 nm (OD450) was determined on a Flexstation3 (Molecular Devices, Sunnyvale, Calif.). MCF7 cells were treated with Hoechst 33342 nuclear stain while being fixed with 4% formaldehyde. Images were acquired on the ImageXpress micro XL (Molecular Devices, Sunnyvale, Calif.) and nuclear counts were determined via Columbus image analysis software (Perkin Elmer, Shelton, Conn.). Background OD450 values (PC3, 293, and T47D) or nuclear counts (MCF7) from digitonin (40 nM) treated cells was subtracted from all wells and viability was expressed as a percentage of the untreated controls. IC50 values were determined from a four-parameter logistic equation over a 10-point response curve (GraphPad Prism).

A further assay concerns T47D cells. In words: In vitro cell viability (cell kill) assay, CCK8. Format: cell-based, human. Particulars: T47D; for IC50: read-out: IC50. The procedure: as §2
The subject of the next assay is MCF7 (MCF7/ATCC) cells. Kind of assay: In vitro cell viability (cell kill) assay, nuclear counts. Format: cell-based, human. Particulars: MCF7/ATCC; Table 20.
Description: as §1, §2

The test system of assay [1] is MCF7/hPRLR (MCF7/PRLR) cells. Described as above. The conditions noted are these: Table 20. In kind it is cell-based, human.
Description: as §1, §2

In the next assay the test system is PRLR expressing cells. In words: In vitro cell viability (cell kill) assay, several cell backgrounds. Particulars: PC3/hPRLR and MCF7/hPRLR cell lines. Format: cell-based, human.
Description: as §1, §2

A further assay concerns PC3 cells. In words: In vitro cell viability (cell kill) assay, CCK8. Format: cell-based, human.
Description: as §1, §2

For a further assay, the system named is MCF7/PRLR tumors. In words: MCF7/PRLR breast cancer xenograft, tumor size and tumor growth inhibition. In kind it is in vivo, NCr nude mice. Particulars: MCF7/PRLR tumors TRIAL #2, NCr Nude mice, Day 63. From the text:
(§3) Briefly, 20×10^6 MCF7/PRLR cells (ATCC HTB-22 transfected with full length hPRLR as previously described) were implanted subcutaneously into the left mammary fat pad of female NCr nude mice. In other studies, 10×10^6 PC3/PRLR (ATCC CRL-1435 transfected with full length hPRLR as previously described) were implanted subcutaneously into the left flank of male SCID mice. Additionally, 10×10^6 parental T47D (ATCC HTB-133) or 7.5×10^10 T47D #11 cells (ATCC HTB-133 serially passaged in vivo as described below) were subcutaneously implanted into the left flank of female CB17 SCID mice. All mice were obtained from Taconic (Hudson, N.Y.). Each bolus of cells was supplemented with a 90-day estrogen release pellet (1.7 mg/pellet; Innovative Research America, Sarasota Fla.). […] Control reagents included PBS vehicle, free methyl-disulfide DM1 (DM1-SMe) and isotype Control 1-DM1.
(§4) In multi-dose studies, mice were dosed once a week for a total of three weeks with tumor volumes and body weights being monitored twice weekly throughout the study. Test ADCs were dosed at 5 and/or 15 mg/kg in the multi-dose studies. In single-dose studies, mice received a single dose of test ADC, and tumor volumes and body weights were monitored twice weekly throughout the study. Test ADCs were dosed at 1, 2.5, 5, and 15 mg/kg in the single-dose studies. Average tumor size as well as tumor growth inhibition relative to the vehicle treated group were calculated for each group. Tumors were measured with calipers twice a week until the average size of the vehicle group reached 1000 mm^3. Tumor size was calculated using the formula (length×width^2)/2. Tumor growth inhibition was calculated according to the following formula: (1−((Tfinal−Tinitial)/(Cfinal−Cinitial)))*100, where T (treated group) and C (control group) represent the mean tumor mass on the day the vehicle group reached 1000 mm^3. […] Results are summarized in Tables 21-25 (multi-dose) and Table 26 (single dose). (NT=not tested in the particular experiment shown).

Another assay deals with PC3/PRLR tumors. Kind of assay: PC3/PRLR xenograft, tumor size and tumor growth inhibition. Format: in vivo, SCID mice. Particulars: PC3/PRLR tumors TRIAL #2, SCID mice, Day 55.
Description: as §3, §4

Another assay concerns T47D#11 tumors. In kind it is in vivo, CB17 SCID mice. Particulars: for Final Tumor size mm^3 (mean ± SEM) / Average Tumor Growth Inhibition (%): T47D#11 tumors, SCID mice, Day 66; for T47D #11 tumor growth: repeat dosing 5 and 15 mg/kg.
Description: as §3, §4

Read-outs that look alike come from different tables or passages of the source.

In general, IC50 refers to the midpoint of a concentration-inhibition curve. Consider `COc1cc2cc(c1Cl)N(C)C(=O)C[C@H](OC(=O)[C@H](C)N(C)C(=O)CCSSC)[C@]1(C)O[C@H]1[C@H](C)[C@@H]1C[C@@](O)(NC(=O)O1)[C@H](OC)/C=C/C=C(\C)C2` [Me-SS-May Free DM1], for which, in the assay on HEK293 (293) cells (HEK293, Table 13, without PRL), the “% Kill” value is given as 94% and the midpoint of inhibition, the IC50, lay at 0.6 nM. Further, in the assay with T47D cells (Table 13, without PRL), the “% Kill” value stood at 100% and the IC50 came out at 0.3 nM.

For the molecule `COc1cc2cc(c1Cl)N(C)C(=O)C[C@H](OC(=O)[C@H](C)N(C)C(=O)CCC(C)(C)S)[C@]1(C)O[C@H]1[C@H](C)[C@@H]1C[C@@](O)(NC(=O)O1)[C@H](OC)/C=C/C=C(\C)C2` [Free DM4], the “% Kill” value in the assay on HEK293 (293) cells (293, Table 19) was determined as 100%; in the assay with MCF7 (MCF7/ATCC) cells, 90%; in [1], 90%; in the assay on T47D cells (Table 19), 100%. The IC50 in the assay on HEK293 (293) cells (293, Table 19) was determined as 0.6 nM; with MCF7 (MCF7/ATCC) cells it was 1.3 nM; in assay [1], 2 nM; with T47D cells (Table 19), 0.5 nM.

B1: H1H6765P-DM1: anti-PRLR antibody H1H6765P conjugated to DM1 through an SMCC linker (conjugate)
VH: EVQLVESGGGVVRPGGSLRLSCVGSGFSFDDHGMNWVRQGPGKGLEWVSGFNWNGGSTNYAESVKGRFTISRDNARNSLFLQMNSLRAEDTALYYCVRGRSGWFNDAFDVWGPGTMVTVSS
VL: EIVLTQSPGTLSLSPGERATLSCRASQTINSNYLAWYRQKPGQTPRLLIYGTSSRATGIPDRFSGSGSGTDFSLTISRLEPEDFAVFYCQQYAGLPTFGPGTKVDIK
In the case of B1, the “cell killing, non-cleavable DM1 ADCs versus cleavable MMAE ADCs” value in the assay on PRLR expressing cells was “nearly equivalent cell killing”. Besides, the IC50 with PC3 cells (Table 11, 3 days) was found to be 200 nM. Further, the “Average Tumor Growth Inhibition (%)” value in the assay on MCF7/PRLR tumors (multi-dose 5 mg/kg) is reported as 122%; with MCF7/PRLR tumors (multi-dose 15 mg/kg) it was 136%; in the assay with PC3/PRLR tumors (multi-dose 15 mg/kg), 98%; in the assay on T47D#11 tumors (multi-dose 15 mg/kg) it was 111%. Further, the “Final Tumor size mm^3 (mean ± SEM)” value with MCF7/PRLR tumors (multi-dose 15 mg/kg) is listed as 0 ± 0 mm^3; with PC3/PRLR tumors (multi-dose 5 mg/kg), 489 ± 70 mm^3; with PC3/PRLR tumors (multi-dose 15 mg/kg) it was 181 ± 42 mm^3; in the assay with T47D#11 tumors (multi-dose 5 mg/kg) it was 183 ± 28 mm^3; in the assay with T47D#11 tumors (multi-dose 15 mg/kg) it was 69 ± 12 mm^3. For the same molecule, in the assay on T47D#11 tumors, the “T47D #11 tumor growth” value was “potently inhibited tumor growth”.

B2: H1H6765-mc-VC-PAB-MMAE (conjugate)
VH: EVQLVESGGGVVRPGGSLRLSCVGSGFSFDDHGMNWVRQGPGKGLEWVSGFNWNGGSTNYAESVKGRFTISRDNARNSLFLQMNSLRAEDTALYYCVRGRSGWFNDAFDVWGPGTMVTVSS
VL: EIVLTQSPGTLSLSPGERATLSCRASQTINSNYLAWYRQKPGQTPRLLIYGTSSRATGIPDRFSGSGSGTDFSLTISRLEPEDFAVFYCQQYAGLPTFGPGTKVDIK
In the case of B2, in the assay on PRLR expressing cells, the “cell killing, non-cleavable DM1 ADCs versus cleavable MMAE ADCs” value is given as “nearly equivalent cell killing”.

B3: H1H6953-mc-vc-PAB-MMAE (conjugate)
VH: EVQLLESGGGLVQPGGTLRLSCAASGFTFSAYAMSWVRQAPGKGLEWVSSINVRAGDTYYADSVKGRFTISRDNSKNTLFLLMNSLRAEDTAAYYCAKARYSSNWGFDFWGQGTLVTVSS
VL: DIVMTQSPDSLTVSLGARTTINCQSSQTILHSSNNHNYLAWYQQKPGLPPKLLIYWSSTRESGVPDRFSGSGSGTDFTLTISSLQAEDVAIYYCQQYSNTPYTFGQGTKLEIN
For the molecule B3, in the assay with PRLR expressing cells, the “cell killing, non-cleavable DM1 ADCs versus cleavable MMAE ADCs” value is reported as “nearly equivalent cell killing”.

B4: H1H6958N2-mc-VC-PAB-MMAE (conjugate)
VH: QVQLVESGGGVVQPGRSLRLSCGASGFTFRNYGMQWVRQGPGKGLEWVTLISFDGNDKYYADSVKGRFTISRDNSKNTLFLQMNSLRTEDTAVYYCARGGDFDYWGQGTLVTVSS
VL: DIQMTQSPSSLSASVGDRVTITCRASQDIRKDLGWYQQKPGKAPKRLIYAASSLHSGVPSRFSGSGSGTEFTLTISSLQPEDFATYYCLQHNSYPMYTFGQGTKLEIK
As for B4, the “cell killing, non-cleavable DM1 ADCs versus cleavable MMAE ADCs” value in the assay with PRLR expressing cells is “nearly equivalent cell killing”. Moreover, in the assay with PC3 cells (Table 18), the “% Kill” value came to 39%.

B5: H1H6782P-DM1: anti-PRLR antibody H1H6782P conjugated to DM1 through an SMCC linker (conjugate)
VH: EVQLVESGGGLVQPGRSLRLSCAASGFTFDDYAMHWVRQAPGKGLEWVSGIIWNSGHIGYGDSVKGRFTISRDNAKKSLYLQMNSLRAEDTALYYCARDSGRYQSYFDYWGQGTLVTVSS
VL: DIQMTQSPSTLSASVGDRVTITCRASHIISSWLAWYQQKPGKAPKVLIFKASSLESGVPSRFSGSGSGTEFTLTISSLQPDDFATYYCQQYNTYSRTFGQGTKVEIK
As to B5, the “% Kill” value worked out at 86% in the assay with HEK293 (293) cells (293, Table 11, 3 days) and 67% in the assay on PC3 cells (Table 11, 3 days). Also, the “Average Tumor Growth Inhibition (%)” value is recorded as 123% with MCF7/PRLR tumors (multi-dose 5 mg/kg), 137% with MCF7/PRLR tumors (multi-dose 15 mg/kg), 69% in the assay on PC3/PRLR tumors (multi-dose 5 mg/kg) and 106% in the assay with T47D#11 tumors (multi-dose 15 mg/kg). The “Final Tumor size mm^3 (mean ± SEM)” value in the assay with PC3/PRLR tumors (multi-dose 5 mg/kg) was determined as 490 ± 63 mm^3; in the assay on PC3/PRLR tumors (multi-dose 15 mg/kg), 321 ± 33 mm^3; with T47D#11 tumors (multi-dose 5 mg/kg), 293 ± 20 mm^3; in the assay with T47D#11 tumors (multi-dose 15 mg/kg), 124 ± 36 mm^3. Moreover, the “T47D #11 tumor growth” value in the assay on T47D#11 tumors was “potently inhibited tumor growth”.
